The target of this series is Alanyl-human growth hormone.

Bounds are passed on as bounds.

B1: Aeromonas aminopeptidase (protein)
chain: MPPITQQATVTAWLPQVDASQITGTISSLESFTNRFYTTTSGAQASDWIASEWQALSASLPNASVKQVSHSGYNQKSVVMTITGSEAPDEWIVIGGHLDSTIGSHTNEQSVAPGADDDASGIAAVTEVIRVLSENNFQPKRSIAFMAYAAEEVGLRGSQDLANQYKSEGKNVVSALQLDMTNYKGSAQDVVFITDYTDSNFTQYLTQLMDEYLPSLTYGFDTCGYACSDHASWHNAGYPAAMPFESKFNDYNPRIHTTQDTLANSDPTGSHAKKFTQLGLAYAIEMGSATGDTPTPGNQ
As to B1, the % cleavage (batch mode, 4-6° C., 16 hrs) is 48%; the % cleavage (batch mode, 4-6° C., 54 hrs) stood at 65%; the % cleavage (batch mode, 4-6° C., 89 hrs) was found to be 75%; the % cleavage (batch mode, ambient, 16 hrs) is 82%. The % cleavage (batch mode, ambient, 54 hrs) is over 97%; the % cleavage (batch mode, ambient, 89 hrs) was over 97%; the % cleavage (recirculation, 28° C., 2.92 hrs, 1.06 passes, RP-HPLC) was over 93%; the % cleavage (recirculation, 28° C., 5.73 hrs, 2.08 passes, tryptic map) is over 96.1%. Besides, the % cleavage (recirculation, 28° C., 15.57 hrs, 5.66 passes, tryptic map) was over 98.6%; the % cleavage (recirculation, 28° C., 17.73 hrs, 6.45 passes, tryptic map) is over 98.6%; the % cleavage (recirculation, 28° C., 20.4 hrs, 7.42 passes, tryptic map) is over 98.6%; the % cleavage (recirculation, 28° C., 23.4 hrs, 8.8 passes, tryptic map) is over 98.8%. Besides, the % cleavage (recirculation, 28° C., 24.4 hrs, 8.87 passes, tryptic map) was over 98.8%; the % cleavage (recirculation, 28° C., 39.7 hrs, 14.44 passes, tryptic map) is over 99.2%; the “removal of Ala from Ala-hGH by AAP in free solution (Ala-hGH 3 mg/ml; AAP 2.0, 3.0, 4.0 units/ml; room temperature; ES/MS)” value is “Most of the reactions for the three highest concentrations of AAP were complete by 6 hours”.

B2: Cu2+-substituted Aeromonas aminopeptidase (protein)
chain: MPPITQQATVTAWLPQVDASQITGTISSLESFTNRFYTTTSGAQASDWIASEWQALSASLPNASVKQVSHSGYNQKSVVMTITGSEAPDEWIVIGGHLDSTIGSHTNEQSVAPGADDDASGIAAVTEVIRVLSENNFQPKRSIAFMAYAAEEVGLRGSQDLANQYKSEGKNVVSALQLDMTNYKGSAQDVVFITDYTDSNFTQYLTQLMDEYLPSLTYGFDTCGYACSDHASWHNAGYPAAMPFESKFNDYNPRIHTTQDTLANSDPTGSHAKKFTQLGLAYAIEMGSATGDTPTPGNQ
Turning to B2, the “rate of Ala-hGH cleavage, batch and recirculating column modes, compared with Zn-AAP (RP-HPLC)” value is recorded as “Cu^2+-substituted AAP was the most active against Ala-hGH”.

The record behind these values is patent US6794159.
